The record followed here is paper PMC6078952, “Insights into the structure and dynamics of lysyl oxidase propeptide, a flexible protein with numerous partners” (Scientific Reports, 2018).

B1: Lysyl oxidase propeptide (LOX-PP) (Pro24Leu) (domain or fragment, human, UniProt P28300 22-168, looked up)
chain: APLAAGQQQPPREPPAAPGAWRQQIQWENNGQVFSLLSLGSQYQPQRRRDPGAAVPGAANASAQQPRTPILLIRDNRTAAARTRTAGSSGVTAGRPRPTARHWFQAGYSTSRAREAGASRAENQTAPGEVPALSNLRPPSRVDGMVG
modifications: N-linked glycans (removed by PNGase F)
notes: propeptide of human lysyl oxidase, UniProtKB P28300, residues 22-168; expressed from the pCEP-Pu-BM40 vector; also called propeptide of human lysyl oxidase; source: HEK293-EBNA, purified (anti-FLAG resin)
B2: Fibronectin fragment III1-C (anastellin) (domain or fragment)
chain: not shown
notes: anastellin, fragment III1-C of fibronectin, UniProtKB P02751, residues 631-702; source: bought: Sigma-Aldrich, F3542
B3: Epidermal growth factor (EGF) (ligand, UniProt P01133 971-1023, looked up)
chain: NSDSECPLSHDGYCLHDGVCMYIEALDKYACNCVVGYIGERCQYRDLKWWELR
notes: epidermal growth factor, feature PRO_0000007541 of pro-epidermal growth factor, UniProtKB P01133; source: bought: Sigma-Aldrich, E9644

Holding throughout (assay): SPR; SPR imaging (SPRi, Biacore Flexchip): partners spotted in triplicate on a bare gold chip at 0.06 to 1 mg/ml; purified LOX-PP injected at 2 µM and recirculated for 20 min; PBS with 0.05% Tween 20, 25 °C
Holding throughout (settings): both partners purified
For orientation: SPR reads the build-up and loss of mass on a sensor chip optically.

Test [1] deals with T1, Transglutaminase-2 (TG-2), mutant Cys277Ser (UniProt P21980 1-687, Cys277Ser).
T1 construct: transglutaminase-2, UniProtKB P21980; source: bought: Zedira, T018
T1 sequence (looked up): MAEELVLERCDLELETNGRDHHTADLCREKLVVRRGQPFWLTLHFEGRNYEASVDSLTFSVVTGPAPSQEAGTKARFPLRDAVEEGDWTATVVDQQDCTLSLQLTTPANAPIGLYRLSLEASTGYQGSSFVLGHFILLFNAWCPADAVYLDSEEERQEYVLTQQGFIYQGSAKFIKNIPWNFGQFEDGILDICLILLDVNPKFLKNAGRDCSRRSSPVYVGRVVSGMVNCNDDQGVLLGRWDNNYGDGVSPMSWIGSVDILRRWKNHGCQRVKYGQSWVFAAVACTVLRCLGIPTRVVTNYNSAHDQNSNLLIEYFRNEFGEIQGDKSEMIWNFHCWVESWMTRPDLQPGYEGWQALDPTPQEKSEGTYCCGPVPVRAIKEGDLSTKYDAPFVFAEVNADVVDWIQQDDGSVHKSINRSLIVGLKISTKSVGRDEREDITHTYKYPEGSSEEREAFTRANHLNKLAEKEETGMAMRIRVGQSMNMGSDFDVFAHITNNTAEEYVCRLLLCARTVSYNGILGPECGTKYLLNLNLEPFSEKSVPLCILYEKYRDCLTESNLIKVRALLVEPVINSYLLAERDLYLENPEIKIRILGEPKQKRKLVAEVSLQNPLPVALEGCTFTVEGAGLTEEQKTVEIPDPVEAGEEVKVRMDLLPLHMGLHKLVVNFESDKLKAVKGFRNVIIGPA

The next test deals with T2, Dermatopontin (UniProt Q07507 19-201).
T2 construct: dermatopontin, UniProtKB Q07507; source: bought: Abcam, ab158310
T2 sequence (looked up): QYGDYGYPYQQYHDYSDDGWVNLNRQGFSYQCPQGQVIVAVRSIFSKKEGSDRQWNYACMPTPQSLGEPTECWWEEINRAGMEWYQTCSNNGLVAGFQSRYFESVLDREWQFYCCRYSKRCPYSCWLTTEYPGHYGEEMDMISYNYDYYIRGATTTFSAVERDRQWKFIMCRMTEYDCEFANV

Test [2] concerns the target T3, Collagen VI (vWF1 domain) (UniProt P12109 20-256).
T3 construct: collagen alpha-1(VI) chain, UniProtKB P12109, residues 20-256 (vWF1 domain); also called Collagen VI alpha 1 chain (vWF1 domain); source: Expressed in the laboratory (PMID 24117177)
T3 sequence (looked up): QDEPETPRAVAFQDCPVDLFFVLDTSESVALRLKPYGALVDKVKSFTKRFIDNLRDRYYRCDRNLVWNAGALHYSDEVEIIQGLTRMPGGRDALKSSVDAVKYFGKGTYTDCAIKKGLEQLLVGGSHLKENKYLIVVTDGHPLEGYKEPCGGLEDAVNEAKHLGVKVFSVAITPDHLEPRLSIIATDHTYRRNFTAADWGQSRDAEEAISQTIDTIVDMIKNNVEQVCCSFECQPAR

A further test addresses T4, Fibromodulin (UniProt P13605 19-376).
T4 construct: proteoglycan; source: bought: Sigma-Aldrich, F6921
T4 sequence (looked up): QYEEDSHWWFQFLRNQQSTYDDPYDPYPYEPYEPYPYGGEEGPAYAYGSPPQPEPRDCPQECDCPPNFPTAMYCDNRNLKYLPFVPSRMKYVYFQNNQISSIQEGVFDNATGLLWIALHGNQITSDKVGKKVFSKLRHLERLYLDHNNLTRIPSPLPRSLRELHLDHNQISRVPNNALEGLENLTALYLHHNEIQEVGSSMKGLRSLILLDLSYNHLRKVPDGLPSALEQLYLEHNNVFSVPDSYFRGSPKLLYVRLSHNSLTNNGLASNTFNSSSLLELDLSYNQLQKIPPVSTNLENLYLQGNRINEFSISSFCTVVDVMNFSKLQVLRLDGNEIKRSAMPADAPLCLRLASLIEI

The target of test [3] is T5, Lysyl oxidase homolog 2 (LOXL2) (UniProt Q9Y4K0 26-774).
T5 construct: lysyl oxidase homolog 2, UniProtKB Q9Y4K0; also called lysyl oxidase-like 2; source: bought: R&D Systems, 2639-AO
T5 sequence (looked up): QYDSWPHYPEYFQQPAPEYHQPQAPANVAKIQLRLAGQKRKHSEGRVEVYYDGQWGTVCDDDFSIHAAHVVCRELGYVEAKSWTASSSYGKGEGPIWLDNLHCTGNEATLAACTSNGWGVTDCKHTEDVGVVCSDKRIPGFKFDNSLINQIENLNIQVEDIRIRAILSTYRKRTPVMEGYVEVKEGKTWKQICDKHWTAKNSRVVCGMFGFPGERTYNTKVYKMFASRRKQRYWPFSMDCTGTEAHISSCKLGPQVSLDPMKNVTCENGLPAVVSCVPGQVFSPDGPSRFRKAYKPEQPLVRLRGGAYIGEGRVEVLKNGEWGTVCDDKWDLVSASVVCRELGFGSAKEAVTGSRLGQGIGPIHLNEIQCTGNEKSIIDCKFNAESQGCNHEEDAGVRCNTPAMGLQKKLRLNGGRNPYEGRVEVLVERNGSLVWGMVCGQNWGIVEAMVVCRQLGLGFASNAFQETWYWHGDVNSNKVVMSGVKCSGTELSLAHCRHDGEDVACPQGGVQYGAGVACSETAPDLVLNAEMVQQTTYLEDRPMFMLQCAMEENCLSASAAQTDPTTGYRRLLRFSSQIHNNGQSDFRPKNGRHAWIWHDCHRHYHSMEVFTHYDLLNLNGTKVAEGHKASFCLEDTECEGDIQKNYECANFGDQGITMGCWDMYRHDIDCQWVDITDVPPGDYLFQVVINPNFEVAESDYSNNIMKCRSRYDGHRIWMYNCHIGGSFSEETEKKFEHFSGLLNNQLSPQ

For test [4], the target named is T6, Matrix metalloproteinase-2 (MMP-2) (UniProt P08253 30-660).
T6 construct: matrix metalloproteinase-2, UniProtKB P08253, residues 30-660; source: bought: R&D Systems, 902-MPN
T6 sequence (looked up): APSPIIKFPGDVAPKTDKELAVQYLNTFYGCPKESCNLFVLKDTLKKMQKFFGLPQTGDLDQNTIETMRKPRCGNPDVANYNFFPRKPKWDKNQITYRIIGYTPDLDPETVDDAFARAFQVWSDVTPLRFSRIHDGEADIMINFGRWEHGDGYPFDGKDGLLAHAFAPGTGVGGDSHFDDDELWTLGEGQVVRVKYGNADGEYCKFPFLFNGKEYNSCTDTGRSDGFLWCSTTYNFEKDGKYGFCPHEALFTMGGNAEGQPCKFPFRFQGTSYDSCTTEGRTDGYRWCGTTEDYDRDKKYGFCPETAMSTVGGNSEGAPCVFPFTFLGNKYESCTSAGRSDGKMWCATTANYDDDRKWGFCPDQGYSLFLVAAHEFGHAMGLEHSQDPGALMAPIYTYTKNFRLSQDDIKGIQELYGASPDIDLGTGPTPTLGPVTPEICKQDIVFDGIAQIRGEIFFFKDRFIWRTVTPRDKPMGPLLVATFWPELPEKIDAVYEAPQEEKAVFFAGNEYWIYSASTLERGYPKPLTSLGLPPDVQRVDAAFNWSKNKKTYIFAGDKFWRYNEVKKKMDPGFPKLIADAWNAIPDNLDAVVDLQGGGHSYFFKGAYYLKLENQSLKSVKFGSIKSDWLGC

The target in test [5] is B1.

For B1, the binding result (in test [1]; with Dermatopontin; in test [2]; with Fibromodulin; in test [3]; in test [4]) was “binds” each time.

B2: in test [5], the binding result is on record as “binds”.

B3: in test [5], the binding result is “binds”.
